Among the data in publication PMC11445239 are stoichiometry N values, retold here.

“And” between values parts separate entries of the source, which are not always exact repeats. Equal values may be shown once.

The target of assay [1] is activated (Caspase 11-cleaved) mGSDMD-C39A-C57A-mEGFP (mouse). In words: single-molecule TIRF imaging with intensity-based stoichiometry analysis; preformed supported lipid bilayer (Egg PC:PI(4,5)P2 99:1 mol %) on glass incubated with 0.5, 1 or 2 nM protein (pre-cleaved WT or mutants, or full-length at 2 nM) for 1 h, washed 15 times with SLB buffer.
For assay [2], the target named is activated (Caspase 11-cleaved) mGSDMD-mEGFP, mGSDMD(NTD)-mEGFP (mouse). Described as above.
For assay [3] the target is unchanged. In words: single-molecule TIRF imaging with intensity-based stoichiometry analysis; 2 nM mGSDMD-mEGFP with 20 nM Caspase 11 incubated with LUVs (Egg PC:PI(4,5)P2 99:1 mol %) for 1 h (same pattern at 5 and 2 min and after H2O2), proteoliposomes then fused into a supported lipid bilayer on glass; SLB buffer 150 mM NaCl, 10 mM Hepes pH 7.4.
For assay [4] the target is unchanged. In words: single-molecule TIRF imaging with intensity-based stoichiometry analysis; preformed supported lipid bilayer of 100% Egg PC (no PI(4,5)P2) incubated with 2 nM active mGSDMD-mEGFP for 1 h, washed.
Assay [5] concerns the target activated (Caspase 11-cleaved) mGSDMD-C192A-mEGFP (mouse). Put plainly: single-molecule TIRF imaging with intensity-based stoichiometry analysis; preformed supported lipid bilayer (Egg PC:PI(4,5)P2 99:1 mol %) on glass incubated with 0.5, 1 or 2 nM protein (pre-cleaved WT or mutants, or full-length at 2 nM) for 1 h, washed 15 times with SLB buffer.

Regarding “activated (Caspase 11-cleaved) mGSDMD-C39A-C57A-mEGFP (domain or fragment)”, in assay [1], the stoichiometry N is 2 and 3 and 4.
Turning to “activated (Caspase 11-cleaved) mGSDMD-mEGFP, mGSDMD(NTD)-mEGFP (domain or fragment)”, the stoichiometry N in assay [2] was 5 and 6 and 9; in assay [3] it was 2 and 3; in assay [4] it was 2.
With “activated (Caspase 11-cleaved) mGSDMD-C192A-mEGFP (domain or fragment)”, the stoichiometry N in assay [5] was 3 and 2.
